T1: hu-IL-36β (human IL-36β, N-terminally truncated active form R5-E157) (human)
T1 sequence: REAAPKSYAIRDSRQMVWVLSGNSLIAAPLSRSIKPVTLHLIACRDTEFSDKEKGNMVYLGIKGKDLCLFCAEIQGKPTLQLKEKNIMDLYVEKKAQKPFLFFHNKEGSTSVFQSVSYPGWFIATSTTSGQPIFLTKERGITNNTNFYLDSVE

B1: mAb2.0 Fab (yeast clone culture supernatant) (Fab, V domains shown)
VH: QLQLQESGPGLVKPSETLSLTCTVSGGSISTSSYYWGWIRQPPGKGLEWIGSIYYTGNTYYNPSLKSRVTISVDTSKNQFSLKLSSVTAADTAVYYCARVRYGVGVPRYFDPWGQGTLVTVSS
VL: QSVLTQPPSVSGAPGQRVTISCTGSSSNIGAHYDVHWYQQLPGTAPKLLIYGNDNRPSGVPDRFSGSKSGTSASLAITGLQAEDEADYYCQSYDYSLSGYVFGGGTKLTVL
B2: mAb4.0 Fab (yeast clone culture supernatant) (Fab, V domains shown)
VH: QLQLQESGPGLVKPSETLSLTCTVSGGSIGSRSYYWGWIRQPPGKGLEWIGSIHYSGTTYYNPSLKSRVTISVDTSKNQFSLKLSSVTAADTAVYYCARVAPSYPRVFDYWGQGTLVTVSS
VL: B1 VL with H32G, D54R, S98R, G99V
B3: mAb1.0 Fab (yeast clone culture supernatant) (Fab, V domains shown)
VH: QVQLVESGGGVVQPGRSLRLSCAASGFSFSAYAMHWVRQAPGKGLEWVAVISYDGTNEYYADSVKGRFTISRDNSKNTLYLQMNSLRAEDTAVYYCARGIRIFTSYFDSWGQGTLVTVSS
VL: B1 VL with G52S, D54N, S98R
B4: mAb3.0 Fab (yeast clone culture supernatant) (Fab, V domains shown)
VH: B1 VH with T31S, S32T, Y54H, T56S, R101H, V104G, G105Y, V106I, Y109R, P112H
VL: B1 VL with H32G, D54T, S98R
B5: mAb6.0 Fab (yeast clone culture supernatant) (Fab, V domains shown)
VH: QLQLQESGPGLVKPSETLSLTCTVSGGSITSSNYYWGWIRQPPGKGLEWIGSIDYTGSTYYNPSLKSRVTISVDTSKNQFSLKLSSVTAADTAVYYCARGKYYETYLGFDVWGQGTLVTVSS
VL: B1 VL with H32G, D54T, Y95I, Y100W
B6: mAb7.0 Fab (yeast clone culture supernatant) (Fab, V domains shown)
VH: QVQLVESGGGVVQPGRSLRLSCAASGFTFSSYGMHWVRQAPGKGLEWVAVISYGGSERYYADSVKGRFTISRDNSKNTLYLQMNSLRAEDTAVYYCAREPWYSSRGWTGYGFDVWGQGTLVTVSS
VL: EIVLTQSPGTLSLSPGERATLSCRASQSVSSNYLAWYQQKPGQAPKLLIYSASSLQSGVPSRFSGSGSGTDFTLTISSLQPEDFATYYCQQTYSYPPTFGQGTKVEIK
B7: mAb8.0 Fab (yeast clone culture supernatant) (Fab, V domains shown)
VH: QVQLVQSGAEVKKPGSSVKVSCKASGGTFSNYAISWVRQAPGQGLEWMGGILPILGTVDYAQKFQGRVTITADESTSTAYMELSSLRSEDTAVYYCAREPWYRLGAFDVWGQGTLVTVSS
VL: DIQMTQSPSSLSASVGDRVTITCRASQTIYKYLNWYQQKPGKAPKLLIYAASSLQSGVPSRFSGSGSGTDFTLTISSLQPEDFATYYCQQYSSIPYTFGQGTKVEIK

These results are taken from patent US20230235040A1.

Substitutions are numbered along the chain they refer to.

The first experiment concerns the target T1, hu-IL-36β (human IL-36β, N-terminally truncated active form R5-E157) (human). Briefly: ELISA, yeast Fab supernatant, anti-Fab-HRP. Background: In an ELISA, binding on a coated surface is turned into a signal by an enzyme label.
The molecule B1 yielded an ELISA OD450 of 0.0604 OD450.
For B2, the ELISA OD450 was 0.0513 OD450.
As for B3, the ELISA OD450 came to 0.0523 OD450.
On the same count and under the same terms, next, B4: 0.11 OD450.

For the next experiment, the target named is hu-IL-36γ (human IL-36γ, N-terminally truncated active form S18-D169) (human) (UniProt Q9NZH8). Nature of the experiment: ELISA, yeast Fab supernatant, anti-Fab-HRP.
hu-IL-36γ (human IL-36γ, N-terminally truncated active form S18-D169) (human), sequence (Q9NZH8 18-169 limits assumed): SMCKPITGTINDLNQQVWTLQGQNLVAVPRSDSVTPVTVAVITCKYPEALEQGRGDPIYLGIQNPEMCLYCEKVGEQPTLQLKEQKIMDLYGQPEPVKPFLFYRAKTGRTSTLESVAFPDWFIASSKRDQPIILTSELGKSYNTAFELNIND
B5: the ELISA OD450 stood at 0.0656 OD450.
As for B6, the ELISA OD450 was determined as 0.0724 OD450.
B7 gave an ELISA OD450 of 0.073 OD450.

The target of a further experiment is hu-IL-36α (human IL-36α, N-terminally truncated active form K6-F158) (human) (UniProt Q9UHA7). Nature of the experiment: ELISA, yeast Fab supernatant, anti-Fab-HRP.
hu-IL-36α (human IL-36α, N-terminally truncated active form K6-F158) (human), sequence (Q9UHA7 6-158 limits assumed): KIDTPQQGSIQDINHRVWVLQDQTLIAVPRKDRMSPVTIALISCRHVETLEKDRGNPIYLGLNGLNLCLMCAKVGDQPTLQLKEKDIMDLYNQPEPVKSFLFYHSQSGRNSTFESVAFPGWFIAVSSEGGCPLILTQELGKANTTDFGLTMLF
B5 returned an ELISA OD450 of 0.0638 OD450.
Consider B6, for which the ELISA OD450 amounted to 0.0604 OD450.
On the same count and under the same terms, next, B7: 0.0698 OD450.
